# Patent US20260049134A1 (UNIVERSITY OF FLORIDA RESEARCH FOUNDATION, published 2026)
# Residue numbers refer to the chain shown, from its start. Numbers in names are those of the source.
# T1: CADM1 on RPMI-8226 cells (human, UniProt Q9BY67)
# T1 sequence (single chain, looked up): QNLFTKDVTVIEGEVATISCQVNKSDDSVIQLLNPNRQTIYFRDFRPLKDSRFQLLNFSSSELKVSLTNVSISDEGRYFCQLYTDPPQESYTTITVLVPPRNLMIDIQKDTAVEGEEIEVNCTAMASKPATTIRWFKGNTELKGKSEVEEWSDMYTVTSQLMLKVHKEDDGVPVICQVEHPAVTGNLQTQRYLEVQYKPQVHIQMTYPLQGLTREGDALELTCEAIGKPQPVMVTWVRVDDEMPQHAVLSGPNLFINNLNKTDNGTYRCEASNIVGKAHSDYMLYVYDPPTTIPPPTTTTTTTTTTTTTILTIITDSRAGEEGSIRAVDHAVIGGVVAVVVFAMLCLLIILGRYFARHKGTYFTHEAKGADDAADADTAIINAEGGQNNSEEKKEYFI
# T2: GARS, endogenous in H929 multiple myeloma cells (human, UniProt P41250 37-739, limits assumed)
# T2 construct: Native protein pulled down from H929 lysates; also called Glycyl-tRNA synthetase; GlyRS
# T2 sequence: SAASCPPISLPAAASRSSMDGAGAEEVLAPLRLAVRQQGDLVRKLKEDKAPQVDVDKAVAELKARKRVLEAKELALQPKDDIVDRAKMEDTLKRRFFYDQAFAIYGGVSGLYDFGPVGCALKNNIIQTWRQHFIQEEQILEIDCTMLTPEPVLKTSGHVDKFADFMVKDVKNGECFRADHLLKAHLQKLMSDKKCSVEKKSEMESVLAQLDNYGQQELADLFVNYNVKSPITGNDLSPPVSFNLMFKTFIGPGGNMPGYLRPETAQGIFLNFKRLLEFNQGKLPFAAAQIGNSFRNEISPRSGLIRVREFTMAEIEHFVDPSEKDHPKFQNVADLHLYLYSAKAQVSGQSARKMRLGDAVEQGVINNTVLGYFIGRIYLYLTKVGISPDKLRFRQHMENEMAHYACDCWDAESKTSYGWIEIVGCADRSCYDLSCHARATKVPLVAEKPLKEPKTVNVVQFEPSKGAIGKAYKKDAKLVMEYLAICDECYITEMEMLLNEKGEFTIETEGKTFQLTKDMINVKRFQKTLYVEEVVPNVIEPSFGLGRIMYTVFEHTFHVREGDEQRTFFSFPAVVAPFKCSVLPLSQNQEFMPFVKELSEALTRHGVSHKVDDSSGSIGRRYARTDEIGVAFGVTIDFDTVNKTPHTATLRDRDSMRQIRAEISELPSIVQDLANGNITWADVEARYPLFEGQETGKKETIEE
# T3: GARS-His (Sino Biological) (human, UniProt P41250 37-739, limits assumed)
# T3 construct: Bought; also called GARS1; glycyl-tRNA synthetase; not shown: His tag of the bought protein
# T3 sequence: T2 sequence
# T4: CADM1, endogenous in H929 multiple myeloma cells (human, UniProt Q9BY67 45-442)
# T4 construct: Native protein on H929 cells (flow cytometry, siRNA knockdown) and in H929 lysates (IP/MS); also called IGSF4A
# T4 sequence: T1 sequence (single chain, looked up)
# B1: TH9-0022 (antibody, human IgG1, kappa, L234A L235A, V domains shown)
# VH: QSLEESGGRLVTPGTPLTLTCTVSGFSLSSYAMNWVRQAPGKGLEWIGIINSYGSTYYASWAKGRFTISKTSTTVDLKITSPTTEDTATYFCARVTYDSYGYGYAPYGMDLWGPGTLVTVSS
# VL: LVMTQTPSSTSNAVGGTVTIKCQASQSIGNVLAWYQQKPGQPPKLLIYAASTLASGVPSRVGGSRSGTEYTLTISGVQREDAATYYCLGSDSDSDIAFGGGTELEILR
# notes: also called TH9-022; negative control IgG1
# B2: HW-28 chimeric rabbit-human IgG1 LA/LA/PG (antibody, V domains shown)
# VH: QKQLVESGGRLVTPGTPLTLTCTASGFSLSSNAMSWVRQAPGEGLQWIGTISSGGSTYYASWAKGRFTISKTSTTVTLKMTSLTTEDTATYFCARGADLHRLWGPGTLVTVSS
# VL: SFVLTQPASVQVNLGQTVSLTCTGKPLSRSFASWYQQKPGQAPVLVIYRDTSRPSGVPDRFSGSSSGNTATLTISGAQAGDEADYYCATSDGSGSSYQYVFGGGTQLTVTG
# notes: Fc-silenced (L234A/L235A/P329G) IgG1, lambda; Alexa Fluor 647-labeled in single-step flow cytometry; Cluster C-45
# B3: HW-45 chimeric rabbit-human IgG1 LA/LA/PG (antibody, V domains shown)
# VH: QKQLVESGGRLVTPGTPLTLTCTVSGFSLSSYAMGWFRQAPGKGLEWIGIINSYGSTYYASWAKGRFTISKTSTTVDLKITSPTTEDTATYFCGRRIGSARFDPWGPGTLVTVSS
# VL: B2 VL with G24A, K25D, P26T, F31Y, V46L, S52R, Q98R, Y99L
# notes: Fc-silenced (L234A/L235A/P329G) IgG1, lambda; Alexa Fluor 647-labeled in single-step flow cytometry; Prototype of cluster C-45
# B4: HW-56 chimeric rabbit-human IgG1 LA/LA/PG (antibody, V domains shown)
# VH: QSVKESEGGLFKPTDTLTLTCTASGFTVSTNAVTWVRQAPGNGLEYIGTIGRSGSAYFASWAKRRSTLTRDINLNTVTLKMTSLTAADTATYFCVRGSPGYRTAISIWGPGTLVTISS
# VL: AVMTQTPSSTSAAVEGTVTINCQASQSISNRLSWFQQKPGQPPKLLIYQASTLASGVPSRFKGSGSGTEFTLTISGVQREDAATYYCLGSYSSSDASFGGGTKLEIKR
# notes: Fc-silenced (L234A/L235A/P329G) IgG1, kappa; Alexa Fluor 647-labeled in single-step flow cytometry; Cluster C-45
# B5: HW-8 chimeric rabbit-human IgG1 LA/LA/PG (antibody, V domains shown)
# VH: QSLEESGGRLVTPGTPLTLTCTVSGFSLSSYAMSWVRQAPGKGLEWIGAISTGGSTTYASWAKGRFTISKTSSTTVDLKMTSLTTEDTATYFCVRHFRLWGPGTLVTISS
# VL: QVLTQTPSSVSAAVGGTVTIKCQASQSIGSALAWFQQKPGQRPKLLIYRASNLASGVPSRFKGSGSGTEFALTISGVQREDAATYYCLGGAAAVWAFGAGTNVEIKR
# notes: as for B4
# B6: HW-81 chimeric rabbit-human IgG1 LA/LA/PG (antibody, V domains shown)
# VH: QKQLVESGGGLVTPGGTLTLTCTVSGFSLSSNGVSWVRQAPGKGLEYIGLIRSIGSTYYATWAKGRFTISKTSTTVDLKITSPTTEDTATYFCARGGYRNGFKLWGPGTLVTVSS
# VL: QPVLTQSPSVSAALGASAKLTCTLSSAHKTYYIEWYQQQHPGKAPRYLMQLQSDGSYTKGTGVPDRFSGSSSGADRYLIISSVQAEDEADYICGVIDSAVYVFGGGTQLTVTG
# notes: as for B2
# B7: HW-16 chimeric rabbit-human IgG1 LA/LA/PG (antibody, V domains shown)
# VH: QSLEESGGRLVTPGTPLTLTCTASGFSLSSYAMSWVRQAPGKGLEWIGTMPTGGGTYYASWAKGRFTISKTSTTVDLQITSPTTEDTATYFCAKHWNIWGPGTLVTISS
# VL: DIVLTQTPSSTSTAVGDTVTINCRASQSIGRNLAWFQQKPGQPPKLLIYRASNLASGVPSRFKGSGSRTQFTLTISGVQREDAATYYCLGSYSSSDTAFGGGTELEILR
# notes: as for B4
# B8: HW-42 chimeric rabbit-human IgG1 LA/LA/PG (antibody, V domains shown)
# VH: QSVKESEGGLFKPADTLTLTCTVSGFSLSSNEISWVRQAPGEGLEYIGIIDTGGRAYYAVWARSRSTITRNTNLNTVTLKMTSLTAADTATYFCARGGVDTEWYAFSSWGPGTLVTVPS
# VL: B2 VL with G24A, K25D, P26T, S30R, F31Y, V46L, Y48F, N68D, S96N
# notes: Fc-silenced (L234A/L235A/P329G) IgG1, lambda; Alexa Fluor 647-labeled in single-step flow cytometry; Cluster C-1
# B9: HW-1 chimeric rabbit-human IgG1 LA/LA/PG (antibody, V domains shown)
# VH: QSLEESGGGLFKPTDTLTLTCTASGFSLGSSYAISWVRQAPGKELEWIGTIDSGRAYYARWAKSRSTITRNTNENTVTLKMTSLTAADTATYFCARDLIPTYSQDIWGPGTLVTISS
# VL: B2 VL with G24A, K25D, P26T, S30R, F31Y, V46L, S95N, G111S
# notes: Fc-silenced (L234A/L235A/P329G) IgG1, lambda; Alexa Fluor 647-labeled in single-step flow cytometry; Prototype of cluster C-1
# B10: HW-17 chimeric rabbit-human IgG1 LA/LA/PG (antibody, V domains shown)
# VH: QSLGESRGRLVTPDETLTLTCTVSGIDLSSNAMSWVRQAPGEGLEWIGTINTGGRAYYASWAKGRFTISRTSTTVDLKMTSLTTEDTATYFCARERYSDGRAYDIWGPGTLVTISS
# VL: SFVLTQPASVQVNLGQTVSLTCTADTLSRRYASWYQQKPGQAPVLLIYTDSNRPSGIPDRFSGSSSGNTATLTISGAQAGDEADYYCATDDGSGSIYQYVFGGGTQLTVTG
# notes: as for B8
# B11: HW-25 chimeric rabbit-human IgG1 LA/LA/PG (antibody, V domains shown)
# VH: QSLEESGGRLVTPGTPLTLTCTVSGFSLSSYAMGWVRQAPGKGLEWIGIIDSRGSTYYATWAKGRFTISKTSTTVDLKITSPTTEDTATYFCAREDSYYYDSFNLWGPGTLVTVSS
# VL: B10 VL with T49R, S51T, N52S, I57V, D90S, I96S, Y99C
# notes: as for B8
# B12: HW-70 chimeric rabbit-human IgG1 LA/LA/PG (antibody, V domains shown)
# VH: QSLEESGGRLVTPGTPLTLTCTVSGFSLSSNAMSWVRQAPGKGLEWIGTIDGYGYTYYASWAKGRFTVSKTSTTVDLKITSPTTEDTATYFCAREIYLGSNFWGPGTLVTISS
# VL: B10 VL with T49R, S51T, N52S, I57V, D90A, I96S, Y99F
# notes: as for B8
# Molecular target: T1, CADM1 on RPMI-8226 cells
# Assay: flow cytometry, IgG1 on RPMI-8226 cells
# Experimental: (§1) Staining protocol. Cells were harvested (5×10⁴ cells per sample), washed once with phosphate-buffered saline (PBS) at RT, and a second time with ice-cold FACS buffer (PBS, 0.5% BSA, 2 mM EDTA, 0.1% NaN₃). Cells were stained in 50 μL of primary antibody for 30 min on ice, washed twice with 100 μL FACS buffer, stained with 50 μL of diluted secondary antibody, washed two more times in FACS, and then resuspended in 50 μL FACS buffer. Samples were acquired on an Accuri C6 Plus or a BD FACSCanto II flow cytometer (both from BD Biosciences). Data were analyzed using FlowJo version 10 software. Primary antibodies: Fab (10 μg/mL), IgG1 (0.1 to 50 μg/mL), or 25 μL polyclonal Fabs from periplasmic extracts. Polyclonal Fabs were produced by diluting bacterial stocks by a factor of 100 in autoinduction media and incubating overnight to induce expression as previously described. […] Viability stains: DAPI (Cell Signaling Technology) or SYTOX AADvanced Dead Cell Stain (Thermo Fisher Scientific). Labeling: The panel of chimeric rabbit/human IgG1s was labeled using the Alexa Fluor 647 Labeling Kit (Thermo Fisher Scientific, #A20173) to facilitate single-step staining. Competition: Unlabeled IgG1s were added at saturating concentrations of 60 μg/mL to block the target receptors, incubating on ice for 30 min, followed by the addition of an equal volume of the Alexa Fluor 647 labeled antibody at 2 μg/mL, and the mixture was incubated on ice for another 30 min.
Binder,antibody-bound positive cells (%),binding result
B1,3,no binding

# Molecular target: T2, GARS, endogenous in H929 multiple …
# Assay: flow cytometry, H929 + ICAM1 siRNA; None 1.06; surface target GARS putative
row,Binder,Cells stained (%)
1,B2,96.9
2,B3,95.1
3,B4,99.2
4,B5,76.3
5,B6,99.1
6,B7,98.1

# Molecular target: T5, PTPRG, endogenous in H929 multiple myeloma cells (human, UniProt P23470 20-1445)
# T5 construct: Native protein on H929 cells (flow cytometry, siRNA knockdown) and in H929 lysates (IP/MS); also called phosphatase receptor type γ
# T5 sequence (P23470 20-1445 limits assumed): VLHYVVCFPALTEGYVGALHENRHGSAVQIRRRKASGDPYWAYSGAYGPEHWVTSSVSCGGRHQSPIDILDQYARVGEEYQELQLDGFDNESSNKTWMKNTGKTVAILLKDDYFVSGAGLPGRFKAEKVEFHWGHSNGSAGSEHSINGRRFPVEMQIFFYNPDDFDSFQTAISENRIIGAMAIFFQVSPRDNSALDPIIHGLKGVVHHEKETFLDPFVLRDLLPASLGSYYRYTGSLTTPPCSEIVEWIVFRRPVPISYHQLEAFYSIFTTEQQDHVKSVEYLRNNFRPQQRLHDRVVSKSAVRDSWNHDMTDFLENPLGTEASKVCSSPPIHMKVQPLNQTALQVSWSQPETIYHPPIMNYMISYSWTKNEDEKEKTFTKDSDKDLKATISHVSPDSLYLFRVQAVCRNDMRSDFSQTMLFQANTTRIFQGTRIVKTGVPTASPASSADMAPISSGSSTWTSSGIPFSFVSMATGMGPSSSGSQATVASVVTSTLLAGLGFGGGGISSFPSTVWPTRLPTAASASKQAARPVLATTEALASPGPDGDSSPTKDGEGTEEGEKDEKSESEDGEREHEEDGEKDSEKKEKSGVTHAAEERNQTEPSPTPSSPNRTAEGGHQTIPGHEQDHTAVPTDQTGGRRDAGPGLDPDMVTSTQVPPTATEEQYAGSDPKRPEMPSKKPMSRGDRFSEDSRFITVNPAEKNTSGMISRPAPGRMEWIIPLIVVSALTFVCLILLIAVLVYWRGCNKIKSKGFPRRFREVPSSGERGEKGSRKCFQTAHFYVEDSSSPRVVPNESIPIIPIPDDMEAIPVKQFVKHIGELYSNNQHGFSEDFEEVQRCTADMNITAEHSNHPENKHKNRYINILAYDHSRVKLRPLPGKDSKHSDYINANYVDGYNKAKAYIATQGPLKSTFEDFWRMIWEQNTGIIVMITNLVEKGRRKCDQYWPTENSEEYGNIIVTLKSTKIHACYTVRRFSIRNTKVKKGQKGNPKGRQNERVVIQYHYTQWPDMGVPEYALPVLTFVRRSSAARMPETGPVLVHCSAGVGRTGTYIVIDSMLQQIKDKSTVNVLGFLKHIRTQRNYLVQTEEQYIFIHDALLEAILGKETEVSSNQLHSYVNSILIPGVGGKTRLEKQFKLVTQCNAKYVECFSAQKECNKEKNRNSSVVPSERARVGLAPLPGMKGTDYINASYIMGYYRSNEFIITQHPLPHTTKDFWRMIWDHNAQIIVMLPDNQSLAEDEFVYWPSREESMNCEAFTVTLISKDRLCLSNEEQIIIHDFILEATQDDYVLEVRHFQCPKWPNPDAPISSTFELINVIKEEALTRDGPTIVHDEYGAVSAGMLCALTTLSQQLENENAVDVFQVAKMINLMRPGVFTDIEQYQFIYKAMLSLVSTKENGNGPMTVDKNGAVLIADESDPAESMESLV
# Assay: flow cytometry, H929 + ICAM1 siRNA; None 455
row,Binder,mAb binding (MFI)
1,B8,12100
2,B9,24500
3,B10,28000
4,B11,11400
5,B12,17900

# Molecular target: T3, GARS-His (Sino Biological)
# Assay: ELISA on coated GARS-His
# Experimental: Recombinant purified ECDs (50-150 ng) of each putative target protein were coated, incubated with 150 ng of the indicated primary antibody, and binding was detected using a peroxidase-conjugated anti-human Fab secondary antibody. Heatmap represents averages of technical triplicates. (8B) Target validation via siRNA knockdown. H929 cells were transfected with siRNA pools targeting the putative antibody targets ICAM1, CADM1, and PTPRG. Cells were then subjected to cognate IgG binding analysis via flow cytometry. (NT, non-targeting siRNA).
# ELISA ELISA was conducted as described previously. Briefly, 50-150 ng of antigen was coated overnight in half-area 96-well plates at 4° C., blocked with 3% BSA at 37° C. for 1 h, and 150 ng of chimeric rabbit/human IgG1 was added, incubating for 2 h at 37° C. […] After incubating at 37° C. for 15 min-1 h (depending on intensity of controls), data were acquired using a SpectraMax M5 plate reader (Molecular Devices).
row,Binder,binding result
1,B8,no binding (tested: 150 ng IgG1 per well)
2,B11,no binding (tested: 150 ng IgG1 per well)
3,B12,no binding (tested: 150 ng IgG1 per well)

# Molecular target: T4, CADM1, endogenous in H929 multiple …
# Assay: flow cytometry, IgG1 on H929 cells
# Experimental: as §1
row,Binder,antibody-bound positive cells (%)
1,B1,2.7

# Molecular target: T6, PTPRG on U266 cells (human, UniProt P23470)
# T6 construct: endogenous on U266 multiple myeloma cells; also called HW-1 target on U266
# T6 sequence (P23470 20-1445 limits assumed): as above
# Assay: flow cytometry, IgG1 on U266 cells
# Experimental: as §1
row,Binder,antibody-bound positive cells (%)
1,B1,6.5
2,B8,64.5
3,B9,84.4
4,B10,85.2
5,B11,69.6
6,B12,76
